The text below walks through data of US20110144312A1 (Kyowa Kirin, published 2011).

One experiment addresses T1, human IL-10Rα on cells (human, UniProt Q13651 22-578).
T1 construct: Full-length entry with signal peptide; endogenous on PBMC and RPMI-8226 cells, transfected in EL-4 and CHO-K1 cells; also called IL-10R on RPMI-8226 cells; IL-10Rα on human PBMC, lymphocytes and monocytes
T1 sequence: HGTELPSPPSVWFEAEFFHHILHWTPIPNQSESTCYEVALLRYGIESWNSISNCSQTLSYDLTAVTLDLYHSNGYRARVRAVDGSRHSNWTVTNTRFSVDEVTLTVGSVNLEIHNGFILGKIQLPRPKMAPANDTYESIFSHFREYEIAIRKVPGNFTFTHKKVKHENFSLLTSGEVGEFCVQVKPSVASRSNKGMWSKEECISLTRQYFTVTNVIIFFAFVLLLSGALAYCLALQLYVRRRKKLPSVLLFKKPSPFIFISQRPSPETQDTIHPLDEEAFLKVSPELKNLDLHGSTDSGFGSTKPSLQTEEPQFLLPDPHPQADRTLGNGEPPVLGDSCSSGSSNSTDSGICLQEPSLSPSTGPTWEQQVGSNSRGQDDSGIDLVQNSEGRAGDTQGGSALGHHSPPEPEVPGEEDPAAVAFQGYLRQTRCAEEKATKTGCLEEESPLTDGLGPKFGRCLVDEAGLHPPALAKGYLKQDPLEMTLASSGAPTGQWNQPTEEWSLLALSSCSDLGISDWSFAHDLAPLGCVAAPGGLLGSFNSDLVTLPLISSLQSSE
Description: flow cytometry on RPMI-8226 cells; biotinylated human IL-10, streptavidin-FITC [B]. From the text:
RPMI-8226 cells were stained with human IL-10 biotin followed by anti-human IL-10Rα antibodies, and binding of antibodies was detected with anti-human IgG-PE or anti-rat IgG-PE. A) Filled histograms represent the maximum binding of the antibodies in the absence of IL-10, the open histograms are in the presence of human IL-10; B) Maximum IL-10 binding (closed histogram) is inhibited by anti-IL-10 (open histogram.) The shaded histogram represents binding of a negative control protein. Binding of IL-10 was detected with streptavidin-FITC.
IL-10 Blocking Assay: To determine if the anti-human IL-10Rα antibodies were blocked by binding of IL-10 to the receptor on the cell surface, a flow cytometric protocol was used. In the flow cytometric assay, RPMI-8226 cells were washed and resuspended in staining buffer and then incubated with biotinylated human IL-10 or a negative control protein (R&D Systems) for 30 minutes on ice. The anti-IL-10Rα antibodies were then added to the cells for an additional 30 minutes. […] After another wash, the cells were fixed with 1% paraformaldehyde and analyzed on a FACS Calibur. The fold reduction in antibody binding was determined using the geometric mean fluorescence intensity in the following formula: Fold reduction=geometric mean fluorescence intensity in the absence of IL-10/geometric mean fluorescence intensity binding in presence of IL-10.
(In general: In flow cytometry, cells or beads pass a laser one at a time.)

Experiment [1] has as its target T2, mouse IL-10Rα on splenocytes (mouse, UniProt Q61727 17-575).
T2 construct: whole, on cells
T2 sequence (looked up): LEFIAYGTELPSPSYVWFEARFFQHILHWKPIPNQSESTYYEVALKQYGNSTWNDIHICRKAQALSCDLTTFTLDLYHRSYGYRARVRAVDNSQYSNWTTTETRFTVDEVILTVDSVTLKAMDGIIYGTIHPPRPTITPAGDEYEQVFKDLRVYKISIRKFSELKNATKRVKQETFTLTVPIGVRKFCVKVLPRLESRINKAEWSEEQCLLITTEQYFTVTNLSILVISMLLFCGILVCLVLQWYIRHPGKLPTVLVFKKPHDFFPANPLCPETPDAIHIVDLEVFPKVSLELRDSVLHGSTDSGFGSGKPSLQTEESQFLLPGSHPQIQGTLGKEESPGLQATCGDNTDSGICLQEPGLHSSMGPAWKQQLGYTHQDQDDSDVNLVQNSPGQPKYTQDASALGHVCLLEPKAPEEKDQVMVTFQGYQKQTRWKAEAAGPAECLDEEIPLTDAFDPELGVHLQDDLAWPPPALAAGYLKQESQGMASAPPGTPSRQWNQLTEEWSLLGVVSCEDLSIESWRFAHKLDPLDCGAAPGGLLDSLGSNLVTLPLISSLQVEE
Kind of experiment: flow cytometry on splenocytes.

In experiment [2] the target is T3, cynomolgus macaque IL-10Rα on PBMC (cynomolgus macaque, UniProt Q13651 22-578 (human entry)).
T3 construct: Full-length entry cloned from cynomolgus T cells; endogenous on primary PBMC in the assays; also called IL-10Rα on the surface of cynomolgus lymphocytes and monocytes
T3 chain: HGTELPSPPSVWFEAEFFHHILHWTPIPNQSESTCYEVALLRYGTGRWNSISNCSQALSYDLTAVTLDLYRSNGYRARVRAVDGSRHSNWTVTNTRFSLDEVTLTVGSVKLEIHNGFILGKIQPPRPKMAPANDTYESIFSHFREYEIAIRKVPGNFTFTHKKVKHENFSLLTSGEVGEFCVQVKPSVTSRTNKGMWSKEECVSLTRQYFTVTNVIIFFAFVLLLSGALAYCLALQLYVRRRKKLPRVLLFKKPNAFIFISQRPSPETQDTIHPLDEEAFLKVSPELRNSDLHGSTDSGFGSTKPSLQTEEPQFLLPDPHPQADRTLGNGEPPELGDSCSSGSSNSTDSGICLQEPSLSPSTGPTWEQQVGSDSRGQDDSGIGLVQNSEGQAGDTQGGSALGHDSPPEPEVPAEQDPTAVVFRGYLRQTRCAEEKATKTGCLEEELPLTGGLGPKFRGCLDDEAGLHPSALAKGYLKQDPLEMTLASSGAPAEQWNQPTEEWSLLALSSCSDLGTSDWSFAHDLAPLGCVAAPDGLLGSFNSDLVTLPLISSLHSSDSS
Kind of experiment: flow cytometry on cynomolgus PBMC.

Experiment [3] deals with T4, cynomolgus macaque IL-10Rα extracellular domain fused to the Fc portion of human IgG1 (cynomolgus macaque).
T4 construct: The entry includes the signal peptide; also called cynomolgus IL-10Rα:hFc; cyIL-10Rα
Kind of experiment: ELISA, coated cynomolgus IL-10Rα:hFc. From the text:
Titration of anti-IL-10Rα antibodies binding to coated chimp or cynomolgus IL-10Rα:hFc. Binding was detected with anti-human kappa-HRP, anti-mouse IgG-HRP, or anti-rat IgG-HRP. Different anti-rat-IgG HRP and anti-mouse IgG antibodies were used to generate the data in panels A and B. The nature of these secondary antibodies can affect the results and lead to different maximum binding (BMAX). The BMAX from these studies are described in Table 5.
IL-10Rα Specific Antibody Detection ELISA: Antibody titers, specificity, and production by hybridomas were determined by ELISA. In brief, 96 well flat bottom Maxisorb plates were coated with 50 μl of hIL-10Rα (R&D Systems, Minneapolis, Minn.) at 1 μg/ml in carbonate buffer (pH 9.4) overnight at 4° C. or at 37° C. for 1 hour. After washing three times with PBS/0.05% Tween 20, plates were blocked with Superblock blocking buffer in TBS (Pierce) at room temperature for 30 minutes. The serum, supernatant, or purified antibody was diluted in blocking buffer, added to the wells, and the plates were incubated for 1 hour at room temperature. The plates were washed 3 times with PBS/0.05% Tween 20 and peroxidase-conjugated goat anti-human IgG (Fcγ specific), anti-rat IgG, or anti-mouse IgG detection antibodies (Jackson Immunoresearch) were added at a dilution of 1:5000. Multiple lots of anti-rat and anti-mouse IgG antibodies were used in different assays. […] Following a 1 hour incubation at room temperature, the plates were washed and the TMB (Sigma) substrate was added and incubated at room temperature for 5 to 10 minutes. The reaction was stopped with H₂SO₄ (LabChem) and the optical density was measured at 450 nm by a microplate reader. A second ELISA protocol using soluble human, chimp and cynomolgus IL-10Rα:hFc recombinant proteins as the coating antigens was also employed. In this assay, binding of specific human IgG were detected with a peroxidase labeled sheep anti-human kappa antibody (The Binding Site, Birmingham, UK).
For orientation: An ELISA detects its analyte on a solid surface through an enzyme-linked reagent.

The target in the next experiment is T5, Ac-YHSNGYRARVRA-NH2 (human).
T5 peptide: Ac-YHSNGYRARVRA-NH2
Description: dot blot on PVDF or nitrocellulose membrane. As to the method:
(§1) Methods to detect antibody binding to peptides derived from the human IL-10Rα sequence: Multiple methods were employed to detect binding of anti-human IL-10Rα antibodies to peptides derived from the extracellular domain of human IL-10Rα that have been reported by Reineke, et al. (Reineke, et al., Protein Sci 7:951 (1998)) to be included in the IL-10 binding site of the receptor. The following amide synthesized peptides were tested: Ac-[…]-NH2, Ac-[…]-NH2, Ac-[…]-NH2, Ac-[…]-NH2, Ac-[…]-NH2 (SEQ ID NO. 81-85). In addition, the following biotinylated peptides were tested: Biotin-[…]-NH2, Biotin-[…]-NH2 (SEQ ID NO. 86-87). The amide peptides were synthesized by A&A Labs, LLC (San Diego, Calif.) and the biotinylated peptides were synthesized by GenScript (Piscataway, N.J.) both at >95% purity and reconstituted at 20 mg/ml in DMSO. In one assay design peptides were spotted at 5 μg/spot in PBS onto PVDF membranes or nitrocellulose membranes that had been prepared according to the manufacturer's instructions. The membranes were incubated with anti-IL-10Rα antibodies using standard Western blotting methods (e.g. Towbin, et al., Proc Natl Acad Sci 76:4350 (1979)). Native human IL-10Ra:hFc and heat denatured human IL-10Ra:hFc were also spotted at 1 μg/spot on the membranes as controls. Negative controls included an irrelevant peptide and isotype controls. […] None of the antibodies bound to the spotted denatured protein or to any of the peptides derived from the human IL-10Ra extracellular domain or the irrelevant peptide.

The next experiment concerns the target T6, Ac-TVTNTRFSVD-NH2 (human).
T6 peptide: Ac-TVTNTRFSVD-NH2
Description: dot blot on PVDF or nitrocellulose membrane. As to the method:
as §1

Another experiment addresses T7, Ac-SIFSHFREYE-NH2 (human).
T7 peptide: Ac-SIFSHFREYE-NH2
Description: dot blot on PVDF or nitrocellulose membrane. As to the method: as §1

Another experiment deals with T8, Ac-GNFTFTHKKV-NH2 (human).
T8 peptide: Ac-GNFTFTHKKV-NH2
Kind of experiment: dot blot on PVDF or nitrocellulose membrane. As to the method:
as §1

The next experiment has as its target T9, Ac-SVASRSNKGM-NH2 (human).
T9 peptide: Ac-SVASRSNKGM-NH2
Kind of experiment: dot blot on PVDF or nitrocellulose membrane. As to the method:
as §1

The target in experiment [4] is T10, Biotin-SGSTLDLYHSNGYRARVRAVDG-NH2 (human, N-terminal biotin, C-terminal amide (-NH2)).
T10 peptide: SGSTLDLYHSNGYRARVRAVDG
Description: dot blot on PVDF or nitrocellulose membrane. The protocol: as §1

Experiment [5] addresses T11, Biotin-SGSTYSIFSHFREYEIAIRKV-NH2 (human, N-terminal biotin, C-terminal amide (-NH2)).
T11 peptide: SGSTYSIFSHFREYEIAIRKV
Description: dot blot on PVDF or nitrocellulose membrane. As to the method: as §1

B1: recombinant human IL-10 (ligand, UniProt P22301 19-178, looked up)
chain: SPGQGTQSENSCTHFPGNLPNMLRDLRDAFSRVKTFFQMKDQLDNLLLKESLLEDFKGYLGCQALSEMIQFYLEEVMPQAENQDPDIKAHVNSLGENLKTLRLRLRRCHRFLPCENKSKAVEQVKNAFNKLQEKGIYKAMSEFDIFINYIEAYMTMKIRN
notes: also called human IL-10 biotin
As for B1, the binding result with human IL-10Rα on cells is given as “binds”.

B2: 136D29 (antibody, V domains shown)
VH: QVQLVQSGAEVKKPGASVKVSCKVSGFTLTELSMHWVRQAPGKGLEWMGGFDPDDGETIYAQKFQGRVSMTEDTSTDTAYMELSSLRSEDTAVYYCATGGYYGPVGMDVWGQGTTVTVSS
VL: DIQMTQSPSSLSASVGDRVTITCRASQGISIWLAWYQQKPEKAPKSLIYAASSLQSGVPSRFSGSGSGTDFTLTISSLQPEDFATYYCQQYNSYPLTFGGGTKVEIK
notes: Hybridoma antibody, human IgG4, kappa light chain #2 (the chain identified as correct); also called human anti-human IL-10Rα monoclonal antibody 136D29; 136D9 [sic]
In the case of B2, the binding result in [1] is “no binding”; in experiment [2], “binds”; with Ac-YHSNGYRARVRA-NH2, “no binding (tested: 5 µg/spot)”; in the experiment with Ac-TVTNTRFSVD-NH2 it was “no binding (tested: 5 µg/spot)”; with Ac-SIFSHFREYE-NH2 it was “no binding (tested: 5 µg/spot)”; with Ac-GNFTFTHKKV-NH2 it was “no binding (tested: 5 µg/spot)”. Besides, the binding result (in the experiment with Ac-SVASRSNKGM-NH2; in [4]; in [5]) was “no binding (tested: 5 µg/spot)” in each case. Besides, in experiment [3], the BMAX was 1.31 OD.
